Literature values in publication PMC3951274.

Columns and labels:
[1] = target: α1(I)127-138 THP 127-138 (Homo sapiens) (UniProt P02452)
[2] = target: [α2(IV)454-465][α1(IV)437-448] heterotrimeric THP α2(IV)454-465, α1(IV)437-448 (Homo sapiens) (UniProt P02462)
UniProt P02462, sequence (P02462 173-1669, chain 1 of 2): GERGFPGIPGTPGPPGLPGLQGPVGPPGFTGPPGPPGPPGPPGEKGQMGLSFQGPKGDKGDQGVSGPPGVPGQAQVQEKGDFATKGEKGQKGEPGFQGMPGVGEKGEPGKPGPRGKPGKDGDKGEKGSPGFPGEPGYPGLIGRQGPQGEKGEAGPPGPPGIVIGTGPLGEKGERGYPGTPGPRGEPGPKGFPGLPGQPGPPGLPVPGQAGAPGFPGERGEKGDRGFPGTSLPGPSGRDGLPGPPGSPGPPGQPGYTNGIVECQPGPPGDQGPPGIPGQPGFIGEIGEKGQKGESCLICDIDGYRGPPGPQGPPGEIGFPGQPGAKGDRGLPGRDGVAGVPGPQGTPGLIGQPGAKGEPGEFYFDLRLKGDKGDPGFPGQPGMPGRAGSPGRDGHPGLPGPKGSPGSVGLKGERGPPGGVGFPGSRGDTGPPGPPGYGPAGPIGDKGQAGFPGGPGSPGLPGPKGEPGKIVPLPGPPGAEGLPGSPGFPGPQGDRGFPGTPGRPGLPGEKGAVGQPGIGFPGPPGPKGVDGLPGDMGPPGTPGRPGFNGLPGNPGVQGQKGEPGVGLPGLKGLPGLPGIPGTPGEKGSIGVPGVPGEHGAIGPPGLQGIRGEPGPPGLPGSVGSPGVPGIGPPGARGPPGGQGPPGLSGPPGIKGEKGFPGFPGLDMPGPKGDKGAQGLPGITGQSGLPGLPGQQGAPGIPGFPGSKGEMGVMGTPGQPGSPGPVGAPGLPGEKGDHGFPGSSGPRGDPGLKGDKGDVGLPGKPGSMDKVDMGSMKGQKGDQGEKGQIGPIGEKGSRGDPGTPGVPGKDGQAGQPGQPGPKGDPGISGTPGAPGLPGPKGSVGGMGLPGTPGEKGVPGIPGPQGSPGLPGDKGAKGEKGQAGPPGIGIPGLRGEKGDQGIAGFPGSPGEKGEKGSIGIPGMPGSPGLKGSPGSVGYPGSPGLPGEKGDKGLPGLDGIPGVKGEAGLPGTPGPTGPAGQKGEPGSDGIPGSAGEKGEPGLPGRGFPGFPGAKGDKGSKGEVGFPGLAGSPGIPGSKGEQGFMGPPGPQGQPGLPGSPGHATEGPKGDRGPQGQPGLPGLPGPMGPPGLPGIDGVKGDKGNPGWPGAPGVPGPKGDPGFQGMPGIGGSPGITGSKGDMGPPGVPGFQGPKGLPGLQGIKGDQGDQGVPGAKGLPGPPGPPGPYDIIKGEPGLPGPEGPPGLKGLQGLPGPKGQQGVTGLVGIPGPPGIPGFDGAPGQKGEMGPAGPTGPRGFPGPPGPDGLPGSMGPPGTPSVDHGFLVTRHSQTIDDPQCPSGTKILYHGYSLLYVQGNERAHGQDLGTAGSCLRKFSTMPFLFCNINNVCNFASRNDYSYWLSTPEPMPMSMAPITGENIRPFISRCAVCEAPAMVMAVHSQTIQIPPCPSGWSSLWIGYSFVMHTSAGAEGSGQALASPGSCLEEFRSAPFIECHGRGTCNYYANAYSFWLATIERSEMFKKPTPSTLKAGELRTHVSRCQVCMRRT
UniProt P02462, sequence (P08572 184-1712, chain 2 of 2, further chain): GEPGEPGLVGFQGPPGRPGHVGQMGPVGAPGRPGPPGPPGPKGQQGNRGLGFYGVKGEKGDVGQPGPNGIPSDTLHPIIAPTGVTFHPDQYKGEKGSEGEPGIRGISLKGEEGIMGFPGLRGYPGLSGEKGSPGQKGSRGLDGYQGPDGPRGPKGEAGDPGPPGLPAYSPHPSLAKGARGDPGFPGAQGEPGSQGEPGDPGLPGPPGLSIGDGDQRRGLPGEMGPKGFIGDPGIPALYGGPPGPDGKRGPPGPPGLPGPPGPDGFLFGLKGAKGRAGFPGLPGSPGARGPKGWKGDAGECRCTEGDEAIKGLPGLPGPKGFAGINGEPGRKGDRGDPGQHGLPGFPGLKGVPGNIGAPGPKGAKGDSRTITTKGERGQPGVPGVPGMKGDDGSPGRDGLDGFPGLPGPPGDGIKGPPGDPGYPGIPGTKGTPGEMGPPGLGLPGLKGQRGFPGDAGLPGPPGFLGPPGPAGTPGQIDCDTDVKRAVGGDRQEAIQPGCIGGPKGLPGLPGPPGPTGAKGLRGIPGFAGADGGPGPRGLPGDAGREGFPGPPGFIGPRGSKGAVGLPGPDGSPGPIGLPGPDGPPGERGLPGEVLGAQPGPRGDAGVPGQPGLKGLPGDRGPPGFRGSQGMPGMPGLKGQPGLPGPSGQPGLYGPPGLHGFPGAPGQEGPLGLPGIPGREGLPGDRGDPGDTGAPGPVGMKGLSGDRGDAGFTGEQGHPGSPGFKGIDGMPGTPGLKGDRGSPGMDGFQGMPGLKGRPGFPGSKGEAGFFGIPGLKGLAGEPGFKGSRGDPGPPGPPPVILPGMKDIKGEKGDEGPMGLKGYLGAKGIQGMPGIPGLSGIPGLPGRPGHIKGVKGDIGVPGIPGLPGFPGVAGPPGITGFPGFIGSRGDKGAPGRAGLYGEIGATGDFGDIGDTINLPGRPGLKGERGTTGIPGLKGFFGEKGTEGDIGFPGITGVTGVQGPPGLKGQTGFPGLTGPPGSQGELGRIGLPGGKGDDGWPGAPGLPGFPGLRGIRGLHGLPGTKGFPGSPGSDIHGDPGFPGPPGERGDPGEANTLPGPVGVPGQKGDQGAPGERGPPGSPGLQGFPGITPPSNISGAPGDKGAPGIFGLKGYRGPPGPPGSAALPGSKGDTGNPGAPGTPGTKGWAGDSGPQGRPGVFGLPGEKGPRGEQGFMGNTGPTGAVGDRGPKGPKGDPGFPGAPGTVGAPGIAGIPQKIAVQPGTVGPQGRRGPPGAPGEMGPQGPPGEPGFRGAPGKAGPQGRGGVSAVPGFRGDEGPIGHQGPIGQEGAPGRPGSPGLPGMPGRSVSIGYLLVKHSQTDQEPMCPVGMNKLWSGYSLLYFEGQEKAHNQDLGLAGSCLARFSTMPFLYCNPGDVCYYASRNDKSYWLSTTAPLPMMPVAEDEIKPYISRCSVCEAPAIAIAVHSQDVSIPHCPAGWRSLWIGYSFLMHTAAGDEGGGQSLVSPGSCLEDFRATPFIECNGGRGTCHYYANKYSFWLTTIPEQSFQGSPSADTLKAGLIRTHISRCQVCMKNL

Row | Kd [1] | Kd [2] | Substance
1 | 0.4 µM | – | integrin α2 I-domain (from UniProt P17301)
2 | – | 20 µM | integrin α1β1 (from UniProt P56199)
